Experimental data published in patent publication US20240189408A1, “COMPOSITIONS AND METHODS FOR REDUCING METHANE EMISSIONS IN RUMINANT POPULATIONS” (Arkea Bio Corp., priority 2022, published 2024).

Assays:
[1] = LNP size and polydispersity by DLS (Malvern Panalytical); assay type: physicochemical; settings: mRNA LNPs of Table 18; for PDI: LNP polydispersity; for Z-avg.: LNP size
Experimental: (§1) To prepare lipid nanoparticles (LNPs), the mRNA stocks were thawed on ice. Nucleic acid concentrations were validated by absorbance at 260 nm using a NanoDrop. The mRNAs were then diluted to a final concentration of 0.35 mg/mL mRNA in Precision Nanosystem's dilution buffer. 10 mL of the dilute mRNAs were loaded into separate Luer lock syringes and all bubbles were removed by gentle tapping. A NanoAssemblr Ignite NxGen Cartridge was loaded into the cartridge slot of the Ignite instrument (FIG. 8A, 801) and one mRNA syringe was attached to the aqueous inlet of the cartridge. 3.3 mL of Genvoy-ILM reagent was loaded into a separate Luer lock syringes and all bubbles were removed by gentle tapping. The Genvoy-ILM syringe was then attached to the organic inlet of the cartridge. LNPs were then generated and collected into a 15 mL conical tube. The process was repeated for the remaining two mRNAs and for a buffer only LNP control (empty). Immediately after LNPs were generated, the samples were loaded into 10K dialysis cartridges, submerged into 1×DPBS (Ca^2+ and Mg^2+-free) to reduce the ethanol concentration to <0.5%. After dialysis the LNPs were recovered from the dialysis cartridges and sterile filtered at 0.2 um. Size and polydispersity (FIG. 8A, 802) were measured using a Malvern Panalytical DLS by diluting 40 uL of LNPs into 360 uL of 1×DPBS. […] Encapsulation efficiency was measured using a RiboGreen assay following Precision Nanosystems recommended protocol using a BioTek Synergy H1 Plate Reader. The resultant encapsulation efficiencies are shown in Table 14, with an average of ˜85%.
(§2) To prepare lipid nanoparticles (LNPs), the mRNA stocks were thawed on ice. Nucleic acid concentrations were validated by absorbance at 260 nm using a NanoDrop. The mRNAs were then diluted to a final concentration of 0.35 mg/mL mRNA in Precision Nanosystem's dilution buffer. 10 mL of the dilute mRNAs were loaded into separate Luer lock syringes and all bubbles were removed by gentle tapping. A NanoAssemblr Ignite NxGen Cartridge was loaded into the cartridge slot of the Ignite instrument and one mRNA syringe was attached to the aqueous inlet of the cartridge. 3.3 mL of Genvoy-ILM reagent was loaded into a separate Luer lock syringes and all bubbles were removed by gentle tapping. The Genvoy-LM syringe was then attached to the organic inlet of the cartridge. LNPs were then generated and collected into a 15 mL conical tube. The process was repeated for the remaining mRNAs and for a buffer only LNP control (empty). Immediately after LNPs were generated, the samples were loaded into 10K dialysis cartridges, submerged into Ix DPBS (Ca^2+ and Mg^2+-free) to reduce the ethanol concentration to <0.5%. After dialysis the LNPs were recovered from the dialysis cartridges and sterile filtered at 0.2 um. Size and polydispersity (FIG. 12 and FIG. 13) were measured using a Malvern Panalytical DLS by diluting 40 uL of LNPs into 360 uL of 1×DPBS. […] Encapsulation efficiency was measured using a RiboGreen assay following Precision Nanosystems recommended protocol using a BioTek Synergy H1 Plate Reader. The resultant encapsulation efficiencies are shown in Table 18, with an average of ˜60%.
(§3) To prepare lipid nanoparticles (LNPs), the mRNA stocks are thawed on ice. Nucleic acid concentrations are validated by absorbance at 260 nm using a NanoDrop. The mRNAs are then diluted to a final concentration of 0.35 mg/mL mRNA in Precision Nanosystem's dilution buffer. 10 mL of the dilute mRNAs are loaded into separate Luer lock syringes and all bubbles are removed by gentle tapping. A NanoAssemblr Ignite NxGen Cartridge is loaded into the cartridge slot of the Ignite instrument and one mRNA syringe is attached to the aqueous inlet of the cartridge. 3.3 mL of Genvoy-ILM reagent is loaded into a separate Luer lock syringes and all bubbles are removed by gentle tapping. The Genvoy-ILM syringe is then attached to the organic inlet of the cartridge. […]

[2] = LNP encapsulation efficiency, RiboGreen assay; assay type: physicochemical; settings: mRNA LNPs of Table 18
Experimental: as §1, §2, §3

B1: ARK003: mRNA: SP + WP_019264904.1 (Methanobrevibacter smithii) + TM/C; SEQ ID NO: 16678 (nucleic acid)
chain: ATGTTCGTGTTCCTCGTGCTCCTGCCCCTCGTCTCCAGCCAGTGCGTGTACCTCATGACCATACCACTGAACGGCACCCCACTCCACGCCTTCCCACTGCCACCCTGGTACATCTGGCTGGGCTTCATCGCAGGACTGATCGCCATCGTCATGGTCACCATAATGCTCTGTTGCATGACCTCCTGCTGTAGCTGCCTGAAAGGCTGTTGCAGCTGCGGGAGCTGCTGCAAATTCGACGAAGACGATAGCGAACCTGTGCTCAAAGGGGTGAAGTTGCATTACACATAGTGA
modifications: listed as DNA
B1 showed a PDI [1] of 0.118, a Z-avg. [1] of 78.82 nm·days and an Encapsulation efficiency [2] of 40%.

B2: ARK005: mRNA: SP + WP_011033493.1 (Methanosarcina mazei) + TM/C; SEQ ID NO: 16680 (nucleic acid)
chain: ATGTTCGTGTTCCTCGTGCTCCTGCCCCTCGTCTCCAGCCAGTGCGTGTACCTCATGACGGTGGTGCTCGGACACCCATTCCCGCTGACACCCTGGTACATCTGGCTGGGCTTCATCGCAGGACTGATCGCCATCGTCATGGTCACCATAATGCTCTGTTGCATGACCTCCTGCTGTAGCTGCCTGAAAGGCTGTTGCAGCTGCGGGAGCTGCTGCAAATTCGACGAAGACGATAGCGAACCTGTGCTCAAAGGGGTGAAGTTGCATTACACATAGTGA
modifications: listed as DNA
Molecule B2 has a PDI [1] of 0.064, a Z-avg. [1] of 78.82 nm·days and an Encapsulation efficiency [2] of 56%.

B3: ARK004: mRNA: SP + WP_016359091.1 (Methanobrevibacter sp. AbM4) + TM/C; SEQ ID NO: 16679 (nucleic acid)
chain: ATGTTCGTGTTCCTCGTGCTCCTGCCCCTCGTCTCCAGCCAGTGCGTGTACCTGATGATAATCCCAATCAACGGGAGTGCACTCCACATCTTCCCCCTCCCGCCCTGGTACATCTGGCTGGGCTTCATCGCAGGACTGATCGCCATCGTCATGGTCACCATAATGCTCTGTTGCATGACCTCCTGCTGTAGCTGCCTGAAAGGCTGTTGCAGCTGCGGGAGCTGCTGCAAATTCGACGAAGACGATAGCGAACCTGTGCTCAAAGGGGTGAAGTTGCATTACACATAGTGA
modifications: listed as DNA
B3 showed a PDI [1] of 0.108, a Z-avg. [1] of 78.82 nm·days and an Encapsulation efficiency [2] of 51%.
